Data on 8 molecules can be found in patent US20230381350A1 (PRECIRIX N V, published 2023).

For experiment [1], the target named is T1, human DPP IV recombinant protein (human, UniProt P27487 29-766).
T1 construct: extracellular domain; Bought protein; also called Dipeptidyl amino-peptidase IV
Briefly: ELISA, coated human DPP IV, HA-His6-tagged VHH extract, anti-HA detection. The procedure: (§1) The day before measurement, 0.1 μg recombinant protein at a concentration of 1 μg/mL in 100 mM NaHCO₃, pH 8.2 was coated in a 96-well ELISA plate (Nunc MaxiSorp). Per VHH clone also a blank coated well was foreseen (only buffer). The wells were overcoated with protein-free T20 (PBS) blocking buffer (Pierce). After washing with PBS, pH7.4, 0.05% Tween, VHH-containing bacterial freeze-thaw extract was added to every well. Binding of HA-His₆-tagged VHHs was detected by using mouse anti-HA.11 epitope tag (clone 16B12, Biolegend) as the primary Ab and goat anti-mouse IgG (whole molecule) alkaline phosphatase conjugate (Sigma-Aldrich) as the secondary Ab, with thorough washing with PBS, pH 7.4, 0.05% Tween in between. Signals were developed using phosphatase substrate (Sigma-Aldrich) in AP blot buffer (100 mM NaCl, 50 mM MgCl₂, 100 mM Tris, pH 9.5). The absorbance was determined at 405 nm using an absorbance microplate reader (Molecular Devices). Per clone the ratio was determined between the absorbance in the antigen-coated well versus the well without antigen.
A general note: An ELISA detects its analyte on a solid surface through an enzyme-linked reagent.

For experiment [2], the target named is T1, human DPP IV recombinant protein. Briefly: ELISA on coated recombinant protein, VHH-containing bacterial extract, anti-HA detection, signal-to-background ratio. The procedure: as §1
For experiment [3], the target named is T2, human FAP recombinant protein (human, UniProt Q12884 26-760).
T2 construct: The protein was biotinylated with sulfo-NHS-SS-biotin for bio-layer interferometry; also called extracellular domain of human FAP with N-terminal His6-tag
T2 sequence: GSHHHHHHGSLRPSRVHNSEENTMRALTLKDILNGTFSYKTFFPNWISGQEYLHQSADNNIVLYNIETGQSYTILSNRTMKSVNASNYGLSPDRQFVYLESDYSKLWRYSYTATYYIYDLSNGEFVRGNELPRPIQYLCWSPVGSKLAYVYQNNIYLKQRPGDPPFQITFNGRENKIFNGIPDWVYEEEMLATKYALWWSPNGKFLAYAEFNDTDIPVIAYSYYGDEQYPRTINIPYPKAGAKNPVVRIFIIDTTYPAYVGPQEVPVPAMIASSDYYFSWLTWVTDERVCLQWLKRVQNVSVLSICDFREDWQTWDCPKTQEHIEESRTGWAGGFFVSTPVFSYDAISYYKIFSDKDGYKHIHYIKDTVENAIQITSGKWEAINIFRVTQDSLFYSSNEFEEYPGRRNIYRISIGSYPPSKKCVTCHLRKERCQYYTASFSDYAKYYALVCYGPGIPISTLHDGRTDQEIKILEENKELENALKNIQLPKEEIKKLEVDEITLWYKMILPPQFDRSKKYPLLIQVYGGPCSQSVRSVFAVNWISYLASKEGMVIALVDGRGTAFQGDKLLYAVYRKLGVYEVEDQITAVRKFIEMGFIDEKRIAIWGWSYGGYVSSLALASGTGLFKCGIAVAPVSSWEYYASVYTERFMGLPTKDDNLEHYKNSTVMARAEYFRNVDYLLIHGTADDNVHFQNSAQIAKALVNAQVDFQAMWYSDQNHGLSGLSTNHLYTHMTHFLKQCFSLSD
Briefly: ELISA, coated human FAP recombinant protein, HA-His6-tagged VHH extract, anti-HA detection. The procedure:
as §1

The target of experiment [4] is T3, human FAP expressed on cells (human, UniProt Q12884 1-760).
T3 construct: also called human FAP cell surface protein; human FAP receptor
T3 sequence: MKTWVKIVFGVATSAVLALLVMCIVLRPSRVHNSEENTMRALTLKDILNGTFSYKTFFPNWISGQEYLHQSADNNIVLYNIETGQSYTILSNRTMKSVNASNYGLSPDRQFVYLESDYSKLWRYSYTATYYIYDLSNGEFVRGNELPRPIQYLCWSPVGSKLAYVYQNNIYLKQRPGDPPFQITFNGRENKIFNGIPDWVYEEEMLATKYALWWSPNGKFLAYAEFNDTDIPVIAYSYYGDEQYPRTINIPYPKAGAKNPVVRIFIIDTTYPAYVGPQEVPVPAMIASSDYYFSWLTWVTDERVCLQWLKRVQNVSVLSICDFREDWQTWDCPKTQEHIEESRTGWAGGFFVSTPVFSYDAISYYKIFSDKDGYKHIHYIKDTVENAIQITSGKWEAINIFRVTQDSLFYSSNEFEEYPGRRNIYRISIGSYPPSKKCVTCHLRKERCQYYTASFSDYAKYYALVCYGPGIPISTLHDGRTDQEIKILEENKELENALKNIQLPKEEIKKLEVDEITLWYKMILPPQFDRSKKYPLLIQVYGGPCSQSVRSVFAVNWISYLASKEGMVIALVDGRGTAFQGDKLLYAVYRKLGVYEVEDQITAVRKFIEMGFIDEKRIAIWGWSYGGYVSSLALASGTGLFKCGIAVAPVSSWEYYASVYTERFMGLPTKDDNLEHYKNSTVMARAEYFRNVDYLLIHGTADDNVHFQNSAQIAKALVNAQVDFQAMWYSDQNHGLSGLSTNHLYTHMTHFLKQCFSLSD
Briefly: saturation binding of 131I-SGMIB-labelled VHH on human FAP-transfected HEK-293 cells; HEK-293 cells. The procedure: (§2) In a first part, the in vitro behaviour was assessed by means of investigating their cellular binding and retention overtime. The binding potential of the resulting radioconjugates was assessed to confirm that this was not affected by the introduction of ¹³¹I-SGMIB into the amino acid sequence of the VHH. To this, human FAP-expressing GM05389 (His₆-tagged and untagged VHH B1) and human FAP-transfected HEK-293 cells (His₆-tagged and untagged VHH B1; His₆-tagged VHH B2) were incubated with serial dilutions with concentrations ranging from 0 to 33 nM of the different ¹³¹I-labelled VHHs. A 100-fold excess of the corresponding unlabeled VHH was added in parallel to saturate the human FAP receptors expressed on cancer cells, to assess non-specific binding.

The target in experiment [5] is T3, human FAP expressed on cells. Briefly: saturation binding of 131I-SGMIB-labelled VHH on human FAP-expressing GM05389 cells; GM05389 cells. The method, then: as §2
Experiment [6] has the same target. Briefly: saturation binding of 99mTc-labelled VHH on human FAP-expressing GM05389 cells (mean ± SD, n = 3). The procedure: (§3) Next, we describe the in vitro and in vivo human and murine FAP binding potential of different VHHs after radiolabelling with the diagnostic radioisotope ^99mTc. […] His₆-tagged human/murine FAP-targeting VHHs were radiolabelled with the diagnostic radioisotope ^99mTc, according to the radiochemical procedure described in Example 3.
(§4) Next, the different cell lines were incubated with serial dilutions with concentrations ranging from 0 to 300 nM of the different ^99mTc-labelled His₆-tagged VHHs. A 100-fold excess of the corresponding unlabeled VHH was added in parallel to saturate the human or murine FAP proteins on the cancer cell surface, to assess non-specific binding. The resulting EC50 values for each of the VHHs are depicted in Table 8. […] We confirmed that ^99mTc-labeled VHH B4 only binds murine FAP cell surface protein, while VHH B3 only binds human FAP cell surface molecules in vitro.

Experiment [7] has the same target. The experiment is described as follows: saturation binding of 99mTc-labelled VHH on human FAP-expressing HEK-293 cells (mean ± SD, n = 3). The procedure:
as §3, §4

Experiment [8] addresses T4, murine FAP expressed on cells (murine, UniProt P97321 1-761).
T4 construct: also called murine FAP cell surface protein
T4 sequence: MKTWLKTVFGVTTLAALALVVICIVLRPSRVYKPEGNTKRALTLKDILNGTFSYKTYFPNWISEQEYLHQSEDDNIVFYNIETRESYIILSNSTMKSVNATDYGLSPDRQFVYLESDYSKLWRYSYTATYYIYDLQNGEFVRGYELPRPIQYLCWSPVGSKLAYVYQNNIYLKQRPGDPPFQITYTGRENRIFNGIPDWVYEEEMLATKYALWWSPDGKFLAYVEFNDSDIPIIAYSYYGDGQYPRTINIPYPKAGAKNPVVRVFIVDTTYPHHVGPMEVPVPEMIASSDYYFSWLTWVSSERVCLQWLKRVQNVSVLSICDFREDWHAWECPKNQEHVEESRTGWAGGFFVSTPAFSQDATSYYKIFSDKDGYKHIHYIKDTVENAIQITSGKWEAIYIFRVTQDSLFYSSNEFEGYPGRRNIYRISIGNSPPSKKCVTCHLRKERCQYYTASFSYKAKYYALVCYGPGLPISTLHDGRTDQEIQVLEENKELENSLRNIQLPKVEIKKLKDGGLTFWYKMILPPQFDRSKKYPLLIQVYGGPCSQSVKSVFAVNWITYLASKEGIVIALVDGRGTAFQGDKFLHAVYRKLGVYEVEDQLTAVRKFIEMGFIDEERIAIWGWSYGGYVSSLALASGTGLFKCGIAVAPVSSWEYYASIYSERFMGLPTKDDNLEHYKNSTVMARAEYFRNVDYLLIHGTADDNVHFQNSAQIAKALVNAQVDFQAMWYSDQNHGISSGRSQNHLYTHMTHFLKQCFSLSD
Briefly: saturation binding of 99mTc-labelled VHH on murine FAP-expressing HEK-293 cells. The procedure:
as §4

In experiment [9] the target is T3, human FAP expressed on cells. Briefly: saturation binding of 99mTc-labelled VHH on human FAP-expressing GM05389 cells. The method, then: as §4
Experiment [10] concerns the target T4, murine FAP expressed on cells. Briefly: saturation binding of 99mTc-labelled VHH on murine FAP-expressing HEK-293 cells (mean ± SD, n = 3). The procedure: as §3, §4

The term EC50 denotes the concentration that produces a half-maximal response.

T1 sequence (P27487 29-766): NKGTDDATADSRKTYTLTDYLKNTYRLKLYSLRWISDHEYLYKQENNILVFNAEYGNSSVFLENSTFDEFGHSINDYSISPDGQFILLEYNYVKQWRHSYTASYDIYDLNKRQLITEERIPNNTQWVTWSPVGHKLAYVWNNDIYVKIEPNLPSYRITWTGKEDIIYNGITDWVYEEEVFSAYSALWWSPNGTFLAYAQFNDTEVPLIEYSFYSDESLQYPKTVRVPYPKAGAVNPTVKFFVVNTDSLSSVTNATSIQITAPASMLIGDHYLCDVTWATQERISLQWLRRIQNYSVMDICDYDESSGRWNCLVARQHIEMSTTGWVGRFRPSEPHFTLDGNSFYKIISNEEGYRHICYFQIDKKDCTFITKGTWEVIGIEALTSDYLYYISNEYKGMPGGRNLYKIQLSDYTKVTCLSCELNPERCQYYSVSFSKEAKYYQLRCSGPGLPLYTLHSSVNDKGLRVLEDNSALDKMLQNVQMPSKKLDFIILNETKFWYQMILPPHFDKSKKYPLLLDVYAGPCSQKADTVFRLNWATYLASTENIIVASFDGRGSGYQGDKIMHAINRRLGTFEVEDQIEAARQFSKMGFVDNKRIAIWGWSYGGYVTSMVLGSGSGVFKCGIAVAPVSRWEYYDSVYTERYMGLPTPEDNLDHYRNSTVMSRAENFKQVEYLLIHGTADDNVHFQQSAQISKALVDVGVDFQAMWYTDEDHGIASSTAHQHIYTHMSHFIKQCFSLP

B1: HA-His6-tagged VHH B1 (VHH)
VHH: QVQLQESGGGLVQPGGSLRLSCVASGRLSSSNSMAWYRQVPGKRRELVAGITGGGETNYADFVGGRFTISRDNAKNGLYLQLNGLKPEDTAAYYCNFWPPLINYWGQGTQVTVSS
notes: Used as bacterial freeze-thaw extract in ELISA and flow cytometry, and at 1 µM in the enzyme assay; also called B1 with HA-His6-tag
For B1, the signal-to-background ratio in experiment [1] is roughly 1; in experiment [3], greater than 25. For the same molecule, the binding result in [2] is on record as “no binding”.

B2: 131I-labeled His6-tagged VHH B1 (VHH)
VHH: DVQLVESGGGLVQPGGSLRLSCVASGRLSSSNSMAWYRQVPGKRRELVAGITGGGETNYADFVGGRFTISRDNAKNGLYLQLNGLKPEDTAAYYCNFWPPLINYWGQGTQVTVSS
modifications: [131I]SGMIB conjugated to lysine side-chain amines
notes: also called 131I-B1; His6-tagged B1
As to B2, the concentration giving a half-maximal response (EC50) is 1.4 nM in [4] and 0.6 nM in experiment [5].

B3: 131I-labeled untagged VHH B1 (VHH)
VHH: DVQLVESGGGLVQPGGSLRLSCVASGRLSSSNSMAWYRQVPGKRRELVAGITGGGETNYADFVGGRFTISRDNAKNGLYLQLNGLKPEDTAAYYCNFWPPLINYWGQGTQVTVSS
modifications: [131I]SGMIB conjugated to lysine side-chain amines
notes: also called untagged B1; [131I]SGMIB-VHH
As to B3, the figures for the EC50 in [4] and in experiment [5] were 2.8 nM and 2.7 nM, respectively.

B4: HA-His6-tagged VHH B2 (VHH)
VHH: QVQLQESGGGLVQAGGSLRLSCAVSGSISSANSMGWYRQAPGKQRDVVAGLTTGGRSHYADSVKGRFTISRDNAKNTVYLQMNSLKAEDTAVYYCNLWPPVQGYWGQGTQVTVSS
notes: also called B2 with HA-His6-tag
Regarding B4, the signal-to-background ratio was roughly 1 in experiment [1] and greater than 25 in experiment [3]. Further, the binding result in experiment [2] is “no binding”.

B5: 131I-labeled His6-tagged VHH B2 (VHH)
VHH: DVQLVESGGGLVQAGGSLRLSCAVSGSISSANSMGWYRQAPGKQRDVVAGLTTGGRSHYADSVKGRFTISRDNAKNTVYLQMNSLKAEDTAVYYCNLWPPVQGYWGQGTQVTVSS
modifications: [131I]SGMIB conjugated to lysine side-chain amines
notes: also called 131I-B2; His6-tagged B2
For B5, the EC50 in experiment [4] was found to be 3.8 nM.

B6: 99mTc-labeled His6-tagged VHH B3 (VHH)
VHH: DVQLVESGGGLVQAGGSLRLSCAVSGRLFSTNAMGWYRQAPGKQRELVAGITGGDRSNYADSVKGRFTISRDNGKNTLYLQMNSLKPEDTAVYYCNFYPPIVGDYWGQGTQVTVSS
modifications: [99mTc(H2O)3(CO)3] complexed at the His6-tag
notes: also called 99mTc-B3
With B6, the half-maximal effective concentration (EC50) in [6] amounted to 2.7 nM; in [7] it was 2.4 nM. The binding result in experiment [8] is “no binding (tested: 0 to 300 nM)”.

B7: 99mTc-labeled His6-tagged VHH B4 (VHH)
VHH: DVQLVESGGGLVQVGGSLRLSCVASGFTFSSYYMSWVRQAPGKGLEWVASIYADGDMTYYADSVRGRFTISRDNAKNTLYLQMNSLKSEDTAVYYCAKDPLPPYHVNQGTQVTVSS
modifications: [99mTc(H2O)3(CO)3] complexed at the His6-tag
notes: also called 99mTc-B4
On to B7, for which, in [9], the binding result is recorded as “no binding (tested: 0 to 300 nM)”. Also, in experiment [10], a half-maximal response (EC50) required 7.6 nM.

B8: 99mTc-labeled non-targeting control VHH R3B23 (VHH)
VHH: QVQLQESGGGSVQAGGSLRLSCAASGDTGYMGWFRQAPGKEREGVAVINSDSGVGSTYYADSVKGRFTISRDNAKNTVYLQMNSLKPEDTAIYYCAAGHFSDYVSPWTWREIYRYNVWGQGTQVTVSS
modifications: 99mTc label (labelling is described at the His6-tag)
notes: also called 99mTc-R3B23
In the case of B8, the binding result in experiment [9] and in [8] was “no binding (tested: 0 to 300 nM)” each time.
